Molecular target: cortactin SH3 domain (UniProt Q60598 488-546)
Test: NMR titration

Sequence of cortactin SH3 domain (Q60598 488-546): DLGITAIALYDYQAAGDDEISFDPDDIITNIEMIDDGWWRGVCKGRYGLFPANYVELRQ

Row | Kd | Binder
1 | 40 ± 5 µM | TAFQEPPPKPSRPKYRPPP [Pyk2-PRR2 peptide]
2 | > 1000 µM | TAFQEPAPKASQAQYRPPP [Pyk2 super-mutant peptide]
3 | 650 ± 10 µM | EFTGPPQKPPRLGAQS [Pyk2-PRR3 peptide]
